The labels stand for the following.
B1: library; numbered along this chain (parent)
chain: MRKPRAAVGSGHRKQAASQEGRQKHAKNNSQAKPSACDGLARQPEEVVLQASVSSYHLFRDVAEVTAFRGSLLSWYDQEKRDLPWRRRAEDEMDLDRRAYAVWVSEVMLQQTQVATVINYYTGWMQKWPTLQDLASASLEEVNQLWAGLGYYSRGRRLQEGARKVVEELGGHMPRTAETLQQLLPGVGRYTAGAIASIAFGQATGVVDGNVARVLCRVRAIGADPSSTLVSQQLWGLAQQLVDPARPGDFNQAAMELGATVCTPQRPLCSQCPVESLCRARQRVEQEQLLASGSLSGSPDVEECAPNTGQCHLCLPPSEPWDQTLGVVNFPRKASRKPPREESSATCVLEQPGALGAQILLVQRPNSGLLAGLWEFPSVTWEPSEQLQRKALLQELQRWAGPLPATHLRHLGEVVHTFSHIKLTYQVYGLALEGQTPVTTVPPGARWLTQEEFHTAAVSTAMKKVFRVYQGQQPGTCMGSKRSQVSSPCSRKKPRMGQQVLDNFFRSHISTDAHSLNSAAQ

Results on twelve variants are retold here after the supplement of paper PMC11908140.
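Also: cells sorted at 72 h after reporter transfection.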

The variants in this data set derive from B1. The experiment in a line: 8OG:A repair function score (normalized; synonymous = 0, nonsense = -1) (normalized log-likelihood score); higher = more repair activity (WT-like). As to conditions: with 8OG:A DNA repair reporter (GFP) in HEK-293 MUTYH KO cells. In short, it runs like this: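 Lentiviral MUTYH cDNA NNN codon-scan libraries were expressed in MUTYH knockout HEK-293 cells with 10 pg/ml doxycycline, and the cells received an 8OG:A GFP repair reporter together with mCherry. At 72 h, viable mCherry+ cells went into GFP+ (repair) or GFP− bins, three replicates per tile, before tile amplicons were sequenced. A repair function score was then built from per-tile Rosace fitness scores, anchored on the synonymous and nonsense distributions. Synonymous medians sat at 0 and nonsense at -1, and variants under 300 counts per million at the start were left out.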
With MRKPRAAVGSGHRKQAASQEGRQKHAKNNSQAKPSACDGLARQPEEVVLQASVSSYHLFRDVAEVTAFRGSLLSWYDQEKRDLPWRRRAEDEMDLDRRAYAVWVSEVMLQQTQVATVINYYTGWMQKWPTLQDLASASLEEVNQLWAGLGYYSRGRRLQEGARKVVEELGGHMPRTAETLQQLLPGVGRYTAGAIASIAFGQATGVVDGNVARVLCRVRAIGADPSSTLVSQQLWGLAQQLVDPARPGDFNQAAMELGATVCTPQRPLCSQCPVESLCRARQRVEQEQLLASGSLSGSPDVEECAPNTGQCHLCLPPSEPWDQTLGVVNFCRKASRKPPREESSATCVLEQPGALGAQILLVQRPNSGLLAGLWEFPSVTWEPSEQLQRKALLQELQRWAGPLPATHLRHLGEVVHTFSHIKLTYQVYGLALEGQTPVTTVPPGARWLTQEEFHTAAVSTAMKKVFRVYQGQQPGTCMGSKRSQVSSPCSRKKPRMGQQVLDNFFRSHISTDAHSLNSAAQ [P331C], the “8OG:A repair function score” value was -0.105.

As for MRKPRAAVGSGHRKQAASQEGRQKHAKNNSQAKPSACDGLARQPEEVVLQASVSSYHLFRDVAEVTAFRGSLLSWYDQEKRDLPWRRRAEDEMDLDRRAYAVWVSEVMLQQTQVATVINYYTGWMQKWPTLQDLASASLEEVNQLWAGLGYYSRGRRLQEGARKVVEELGGHMPRTAETLQQLLPGVGRYTAGAIASIAFGQATGVVDGNVARVLCRVRAIGADPSSTLVSQQLWGLAQQLVDPARPGDFNQAAMELGATVCTPQKPLCSQCPVESLCRARQRVEQEQLLASGSLSGSPDVEECAPNTGQCHLCLPPSEPWDQTLGVVNFPRKASRKPPREESSATCVLEQPGALGAQILLVQRPNSGLLAGLWEFPSVTWEPSEQLQRKALLQELQRWAGPLPATHLRHLGEVVHTFSHIKLTYQVYGLALEGQTPVTTVPPGARWLTQEEFHTAAVSTAMKKVFRVYQGQQPGTCMGSKRSQVSSPCSRKKPRMGQQVLDNFFRSHISTDAHSLNSAAQ [R266K], the “8OG:A repair function score” value stood at 0.00702. With MRKPRAAVGSGHRKQAASQEGRQKHAKNNSQAKPSACDGGARQPEEVVLQASVSSYHLFRDVAEVTAFRGSLLSWYDQEKRDLPWRRRAEDEMDLDRRAYAVWVSEVMLQQTQVATVINYYTGWMQKWPTLQDLASASLEEVNQLWAGLGYYSRGRRLQEGARKVVEELGGHMPRTAETLQQLLPGVGRYTAGAIASIAFGQATGVVDGNVARVLCRVRAIGADPSSTLVSQQLWGLAQQLVDPARPGDFNQAAMELGATVCTPQRPLCSQCPVESLCRARQRVEQEQLLASGSLSGSPDVEECAPNTGQCHLCLPPSEPWDQTLGVVNFPRKASRKPPREESSATCVLEQPGALGAQILLVQRPNSGLLAGLWEFPSVTWEPSEQLQRKALLQELQRWAGPLPATHLRHLGEVVHTFSHIKLTYQVYGLALEGQTPVTTVPPGARWLTQEEFHTAAVSTAMKKVFRVYQGQQPGTCMGSKRSQVSSPCSRKKPRMGQQVLDNFFRSHISTDAHSLNSAAQ [L40G] the figure was 0.0939; with MRKPRAAVGSGHRKQAASQEGRQKHAKNNSQAKPSACDGLARQPEEVVLQASVSSYHLFRDVAEVTAFRGSLLSWYDQEKRDLPWRRRAEDEMDLDRRAYAVWVSEVMLQQTQVATVINYYTGWMQKWPTLQDLASASLEEVNQLWAGLGYYSRGRRLQEGARKVVEELGGHMPRTAETLQQLLPGVGRYTAGAIASIAFGQATGVVDGNVARVLCRVRAIGADPSSTLVSQQLWGLAQQLVDPARPGDFNQAAMELGATVCTPQRPLCSQCPVESLCRARQRVEQEQLLASGSLSGSPDVEECAPNTGQCHLCLPPSEPWDQTLGVVNFPRKASRKPPREESSATCVLEQPGALGAQILLVQRPNSGLVAGLWEFPSVTWEPSEQLQRKALLQELQRWAGPLPATHLRHLGEVVHTFSHIKLTYQVYGLALEGQTPVTTVPPGARWLTQEEFHTAAVSTAMKKVFRVYQGQQPGTCMGSKRSQVSSPCSRKKPRMGQQVLDNFFRSHISTDAHSLNSAAQ [L370V], -0.484; with MRKPRAAVGSGHRKQAASQEGRQKHAKNNSQAKPSACDGLARQPEEVVLQASVSSYHLFRDVAEVTAFRGSLLSWYDQEKRDLPWRRRAEDEMDLDRRAYAVWVSEVMLQQTQVATVINYYTGWMQKWPTLQDLASASLEEVNQLWAGLGYYSRGRRLQEGARKVVEELGGHMPRTAETLQQLLPGVGRYTAGAIASIAFGQATGVVDGNVARVLCRVRAIGADPSSTLVSQWLWGLAQQLVDPARPGDFNQAAMELGATVCTPQRPLCSQCPVESLCRARQRVEQEQLLASGSLSGSPDVEECAPNTGQCHLCLPPSEPWDQTLGVVNFPRKASRKPPREESSATCVLEQPGALGAQILLVQRPNSGLLAGLWEFPSVTWEPSEQLQRKALLQELQRWAGPLPATHLRHLGEVVHTFSHIKLTYQVYGLALEGQTPVTTVPPGARWLTQEEFHTAAVSTAMKKVFRVYQGQQPGTCMGSKRSQVSSPCSRKKPRMGQQVLDNFFRSHISTDAHSLNSAAQ [Q233W], -0.0138. Under MRKPRAAVGSGHRKQAASQEGRQKHAKNNSQAKPSACDGLARQPEEVVLQASVSSYHLFRDVAEVTAFRGSLLSWYDQEKRDLPWRRRAEDEMDLDRRAYAVWVSEVMLQQTQVATVINYYTGWMQKWPTLQDLASASLEEVNQLWAGLGYYSRGRRLQEGARKVVEELGGHMPRTAETLQQLLPGVGRYTAGAIASIAFGQATGVVDGNVARVLCRVRAIGADPSSTLVSQQLWGLAQQLVDPARPGDFNQAAMELGATVCTPQRPLCSQCPVESLCRARQRVEQEQLLASGSLSGSPDVEECAPNTGQCHLCLPPSEPWDQTLGVVNFPRKASRKPPREESSATCVLEQPGALGAQILLVQRPNSGLLAGLWEFPSVTWEPSEQLQRKALLQELQRWAGPLPATHLRHLGEVVHTFSHIKLTYQVYGLALEGQTPVTTVPPGARWLTQEEFHTAAVSLAMKKVFRVYQGQQPGTCMGSKRSQVSSPCSRKKPRMGQQVLDNFFRSHISTDAHSLNSAAQ [T460L] stands -0.235; under MRKPRAAVGSGHRKQAASQEGRQKHAKNNSQAKPSACDGLARQPEEVVLQASVSSYHLFRDVAEVTAFRGSLLSWYDQEKRDLPWRRRAEDEMDLDRRAYAVWVSEVMLQQTQVATVINYYTGWMQKWPTLQDLASASLEEVNQLWAGLGYYSRGRRLQEGARKVVEELGGHMPRTAETLQQLLPGVGRYTAGAIASIAFGQATGVVDGNVARVLCRVRAIGADPSSTLVSQQLWGLAQQLVDPARPGDFNQAAMELGATVCTPQRPLCSQCPVESLCRARCRVEQEQLLASGSLSGSPDVEECAPNTGQCHLCLPPSEPWDQTLGVVNFPRKASRKPPREESSATCVLEQPGALGAQILLVQRPNSGLLAGLWEFPSVTWEPSEQLQRKALLQELQRWAGPLPATHLRHLGEVVHTFSHIKLTYQVYGLALEGQTPVTTVPPGARWLTQEEFHTAAVSTAMKKVFRVYQGQQPGTCMGSKRSQVSSPCSRKKPRMGQQVLDNFFRSHISTDAHSLNSAAQ [Q282C], -0.0445; under MRKPRAAVGSGHRKQAASQEGRQKHAKNNSQAKPSACDGLARQPEEVVLQASVSSYHLFRDVAEVTAFRGSLLSWYDQEKRDLPWRRRYEDEMDLDRRAYAVWVSEVMLQQTQVATVINYYTGWMQKWPTLQDLASASLEEVNQLWAGLGYYSRGRRLQEGARKVVEELGGHMPRTAETLQQLLPGVGRYTAGAIASIAFGQATGVVDGNVARVLCRVRAIGADPSSTLVSQQLWGLAQQLVDPARPGDFNQAAMELGATVCTPQRPLCSQCPVESLCRARQRVEQEQLLASGSLSGSPDVEECAPNTGQCHLCLPPSEPWDQTLGVVNFPRKASRKPPREESSATCVLEQPGALGAQILLVQRPNSGLLAGLWEFPSVTWEPSEQLQRKALLQELQRWAGPLPATHLRHLGEVVHTFSHIKLTYQVYGLALEGQTPVTTVPPGARWLTQEEFHTAAVSTAMKKVFRVYQGQQPGTCMGSKRSQVSSPCSRKKPRMGQQVLDNFFRSHISTDAHSLNSAAQ [A89Y], -0.00929. Consider MRKPRAAVGSGHRKQAASQEGRQKHAKNNSQAKPSACDGLARQPEEVVLQASVSSYHLFRDVAEVTAFRGSLLSWYDQEKRDLPWRRRAEDEMDLDRRAYAVWVSEVMLQQTQVATVINYYTGWMQKWPTLQDLASAGLEEVNQLWAGLGYYSRGRRLQEGARKVVEELGGHMPRTAETLQQLLPGVGRYTAGAIASIAFGQATGVVDGNVARVLCRVRAIGADPSSTLVSQQLWGLAQQLVDPARPGDFNQAAMELGATVCTPQRPLCSQCPVESLCRARQRVEQEQLLASGSLSGSPDVEECAPNTGQCHLCLPPSEPWDQTLGVVNFPRKASRKPPREESSATCVLEQPGALGAQILLVQRPNSGLLAGLWEFPSVTWEPSEQLQRKALLQELQRWAGPLPATHLRHLGEVVHTFSHIKLTYQVYGLALEGQTPVTTVPPGARWLTQEEFHTAAVSTAMKKVFRVYQGQQPGTCMGSKRSQVSSPCSRKKPRMGQQVLDNFFRSHISTDAHSLNSAAQ [S138G], for which the “8OG:A repair function score” value was determined as 0.0657.

As for MRKPRAAVGSGHRKQAASQEGRQKHAKNNSQAKPSACDGLARQPEEVVLQASVSSYHLFRDVAEVTAFRGSLLSWYDQEKRDLPWRRRAEDEMDLDRRAYAVWVSEVMLQQTQVATVINYYTGWMQKWPTLQDLASASLEEVNQLWAGLGYYSRGRRLQEGARKVVEELGGHMPRTAETLQQLLPGVGRYTAGAIASIAFGQATGVVDGNVARVLCRVRAIGADPSSTLVSQQLWGLAQQLVDPARPGDFNQAAMELGATVCTPQRPLCSQCPVESLCRARQRVEQEQLLASGSLSGSPDVEECAPNTGQCHLCLPPSEPWDQTLGVVNFPRKASRKPPREESSATCCLEQPGALGAQILLVQRPNSGLLAGLWEFPSVTWEPSEQLQRKALLQELQRWAGPLPATHLRHLGEVVHTFSHIKLTYQVYGLALEGQTPVTTVPPGARWLTQEEFHTAAVSTAMKKVFRVYQGQQPGTCMGSKRSQVSSPCSRKKPRMGQQVLDNFFRSHISTDAHSLNSAAQ [V348C], the “8OG:A repair function score” value is -0.104. With MRKPRAAVGSGHRKQAASQEGRQKHAKNNSQAKPSACDGLARQPEEVVLQASVSSYHLFRDVAEVTAFRGSLLSWYDQEKRDLPWRRRAEDEMDLDRRAYAVWVSEVMLQQTQVATVINTYTGWMQKWPTLQDLASASLEEVNQLWAGLGYYSRGRRLQEGARKVVEELGGHMPRTAETLQQLLPGVGRYTAGAIASIAFGQATGVVDGNVARVLCRVRAIGADPSSTLVSQQLWGLAQQLVDPARPGDFNQAAMELGATVCTPQRPLCSQCPVESLCRARQRVEQEQLLASGSLSGSPDVEECAPNTGQCHLCLPPSEPWDQTLGVVNFPRKASRKPPREESSATCVLEQPGALGAQILLVQRPNSGLLAGLWEFPSVTWEPSEQLQRKALLQELQRWAGPLPATHLRHLGEVVHTFSHIKLTYQVYGLALEGQTPVTTVPPGARWLTQEEFHTAAVSTAMKKVFRVYQGQQPGTCMGSKRSQVSSPCSRKKPRMGQQVLDNFFRSHISTDAHSLNSAAQ [Y120T] the figure was 0.0371. With MRKPRAAVGSGHRKQAASQEGRQKHAKNNSQAKPSACDGLARQPEEVVLQASVSSYHLFRDVAEVTAFRGSLLSWYDQEKRDLPWRRRAEDEMDLDRRAYAVWVSEVMLQQTQVATVINYYTGWMQKWPTLQDLASASLEEKNQLWAGLGYYSRGRRLQEGARKVVEELGGHMPRTAETLQQLLPGVGRYTAGAIASIAFGQATGVVDGNVARVLCRVRAIGADPSSTLVSQQLWGLAQQLVDPARPGDFNQAAMELGATVCTPQRPLCSQCPVESLCRARQRVEQEQLLASGSLSGSPDVEECAPNTGQCHLCLPPSEPWDQTLGVVNFPRKASRKPPREESSATCVLEQPGALGAQILLVQRPNSGLLAGLWEFPSVTWEPSEQLQRKALLQELQRWAGPLPATHLRHLGEVVHTFSHIKLTYQVYGLALEGQTPVTTVPPGARWLTQEEFHTAAVSTAMKKVFRVYQGQQPGTCMGSKRSQVSSPCSRKKPRMGQQVLDNFFRSHISTDAHSLNSAAQ [V142K] the figure was -0.84.
